Data on three molecules can be found in paper PMC2778870, “The Crystal Structures of Yeast Get3 Suggest a Mechanism for Tail-Anchored Protein Membrane Insertion” (PLoS ONE, 2009).

As a reminder, the stoichiometry N is the number of molecules, sites or subunits per partner or assembly.

Data set [1] concerns the target T1, D. hansenii Get3 (Debaryomyces hansenii, UniProt Q6BSM0).
T1 construct: recombinant, expressed and purified; homo-dimer; finger domain not visible in electron density
T1 sequence (Q6BSM0 1-348): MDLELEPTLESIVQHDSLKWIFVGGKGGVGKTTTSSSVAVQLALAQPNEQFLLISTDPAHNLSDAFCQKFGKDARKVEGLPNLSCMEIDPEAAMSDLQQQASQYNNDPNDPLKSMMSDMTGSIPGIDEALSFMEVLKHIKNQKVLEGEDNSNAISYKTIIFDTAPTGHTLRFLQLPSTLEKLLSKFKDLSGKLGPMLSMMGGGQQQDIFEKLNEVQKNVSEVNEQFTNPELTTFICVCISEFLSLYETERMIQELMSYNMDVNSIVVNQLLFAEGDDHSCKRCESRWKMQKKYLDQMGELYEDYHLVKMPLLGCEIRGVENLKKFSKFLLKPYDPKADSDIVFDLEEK
The experiment in a line: X-ray crystallography, […] A, co-crystallization. The conditions noted are these: 2 mM ADP, 1 mM MgCl2, 5 mM KCl, 0.2 M ammonium mono-basic phosphate, 20% glycerol; nucleotide-binding domain, closed dimer.

Data set [2] concerns the molecule itself. Nature of the data set: crystal structure; S. cerevisiae Get3, nucleotide-free, 2.3 Å; hanging drop, 100 mM MES pH 6.0, PEG 3350 15%, 0.2 M ammonium sulfate; two monomers in the asymmetric unit.
Data set [3] concerns the molecule itself. The experiment in a line: crystal structure; D. hansenii Get3 with ADP, 1.8 Å; hanging drop, 0.2 M ammonium mono-basic phosphate, 20% glycerol, 1 mM MgCl2, 5 mM KCl, 2 mM ADP.

Regarding `Nc1ncnc2c1ncn2[C@@H]1O[C@H](COP(=O)(O)OP(=O)(O)O)[C@@H](O)[C@H]1O` [ADP], in data set [1], the “X-ray crystallography, 1.8 A, co-crystallization” value was “The bound ADP molecule can be clearly identified in the Get3 nucleotide-binding domain (NBD)”.

B1: S. cerevisiae full-length Get3 (enzyme, UniProt Q12154 1-354, looked up)
chain: MDLTVEPNLHSLITSTTHKWIFVGGKGGVGKTTSSCSIAIQMALSQPNKQFLLISTDPAHNLSDAFGEKFGKDARKVTGMNNLSCMEIDPSAALKDMNDMAVSRANNNGSDGQGDDLGSLLQGGALADLTGSIPGIDEALSFMEVMKHIKRQEQGEGETFDTVIFDTAPTGHTLRFLQLPNTLSKLLEKFGEITNKLGPMLNSFMGAGNVDISGKLNELKANVETIRQQFTDPDLTTFVCVCISEFLSLYETERLIQELISYDMDVNSIIVNQLLFAENDQEHNCKRCQARWKMQKKYLDQIDELYEDFHVVKMPLCAGEIRGLNNLTKFSQFLNKEYNPITDGKVIYELEDKE
notes: Get3 (Arr4) ATPase, S. cerevisiae, full length; in the crystal residues 191-210 (molecule A) and 93-116 (molecule B) are not seen; Se-Met protein was used for phasing only; One Zn ion is held between the two monomers; also called ScGet3; Arr4; source: E. coli, purified (Ni-chelating column, gel-filtration column)
Regarding B1, the “stoichiometry N” value in data set [2] came to 2.

B2: D. hansenii Get3 (enzyme)
chain: T1 sequence (Q6BSM0 1-348)
notes: Get3 ATPase of the yeast D. hansenii (Debaryomyces hansenii); finger domain not seen in the electron density; Crystallised with ADP and Mg; also called DhGet3; source: expressed and purified
As to B2, the “stoichiometry N” value in data set [3] came out at 2.
